Patent US20260055143A1, “HIGH AFFINITY VARIANTS OF SH2 DOMAINS” (Axoiya Inc., priority 2023, published 2026)

Key:
phosphopeptide = experiment: competition binding
[1] = target: pTyr-containing peptide (pEZ) derived from Ezrin, PPV{pTyr}EPVS; experiment: competitive phage ELISA (IC50), soluble Ezrin phosphopeptide against the immobilized peptide
[2] = target: Phosphopeptide PPPT{pTyr}TEVDP; experiment: competitive ELISA, soluble phosphopeptide titrated against the immobilized peptide
[3] = target: pTyr-containing peptide (pEZ) derived from Ezrin, PPV{pTyr}EPVS; experiment: fluorescence polarization; the wt is the reference
[4] = target: pTyr-containing peptide (pEZ) derived from Ezrin, PPV{pTyr}EPVS; experiment: fluorescence polarization, purified SH2 domain with fluorescein-labelled ezrin phosphopeptide
[5] = target: pMT peptide EEPQ{pTyr}EEIPIY; experiment: competitive phage ELISA (IC50), soluble pMT peptide against the immobilized peptide
[6] = target: Phosphopeptide KQVE{pTyr}LDLDLD; experiment: competitive ELISA, soluble phosphopeptide titrated against the immobilized peptide

| Substance | IC50 (phosphopeptide) | also measured |
| --- | --- | --- |
| Abl1 sSrc | 290 nM | – |
| Crkl sSrc | 27 nM | – |
| Btk sFes | 1100 nM | – |
| Blk wt | > 20000 nM | – |
| Nck1 sSrc | 100 nM | – |
| Lck wt | 360 nM | – |
| Grb2 sSrc | 11 nM | – |
| P85B_N wt | > 20000 nM | – |
| Fes^sSrc, Fes SH2 domain with the sSrc superbinder motif grafted (designed binder) | – | fold enhancement of affinity over wt [1]: 650 fold |
| P55G_N sFes | 1900 nM | – |
| Shc1 wt | > 20000 nM | – |
| Vav sSrc | 950 nM | – |
| Ptn11_C^sFes/αA-2-Arg (designed binder) | – | IC50 [2]: 1100 nM |
| Fes SH2 domain, wild type (Fes^wt) (from UniProt P07332 460-549) | – | Fold Change [3]: 1 fold; IC50 [4]: 1300 nM |
| Vav3 wt | > 20000 nM | – |
| Btk wt | > 20000 nM | – |
| Vav2 sFes | > 20000 nM | – |
| Src^sFes, Src SH2 domain with the sFes superbinder motif grafted (designed binder) | – | fold enhancement of affinity over wt [5]: 125 fold |
| Shc1 sFes | > 20000 nM | – |
| Vav wt | > 20000 nM | – |
| Grb2 sFes | 90 nM | – |
| Abl1 wt | 1600 nM | – |
| Src sSrc | 19 nM | – |
| Vav2 wt | > 20000 nM | – |
| Abl1 sFes | 120 nM | – |
| Nck1 wt | 2000 nM | – |
| Vav2 sSrc | 872 nM | – |
| P85A_N sSrc | 2300 nM | – |
| Ptn11_N^αA-2-Arg, Ptn11_N SH2 domain with the αA-2 position mutated to Arg (designed binder) | – | IC50 [6]: 14 nM |

Further lines, with some results ahead:

| IC50 (phosphopeptide) | Substance | also measured |
| --- | --- | --- |
| 7200 nM | Shc1 sSrc | – |
| 3100 nM | Crkl wt | – |
| 220 nM | P85B_N sFes | – |
| 540 nM | P85A_N wt | – |
| 12 nM | Lck sSrc | – |
| 560 nM | Grb2 wt | – |
| 940 nM | Blk sFes | – |
| 110 nM | Blk sSrc | – |
| 70 nM | Lck sFes | – |
| 0.9 nM | P85A_N sFes | – |
| > 20000 nM | Nck1 sFes | – |
| > 20000 nM | P85B_N sSrc | – |
| 810 nM | Btk sSrc | – |
